Values belong to the binder of their own block, whether it stands above or below them.
Molecular target: T1, human CD24 (human, UniProt P25063 27-59)
T1 chain (looked up): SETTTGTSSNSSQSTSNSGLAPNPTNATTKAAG
Test: cell-based or functional assay

ADCP: phagocytosis of CD24-SKOV3 cells by macrophages, EC50: 4 pM
ADCP: phagocytosis of MCF-7 cells by macrophages, EC50: 2 pM
B1: 1-D2-IgG4 (bispecific antibody)
heavy: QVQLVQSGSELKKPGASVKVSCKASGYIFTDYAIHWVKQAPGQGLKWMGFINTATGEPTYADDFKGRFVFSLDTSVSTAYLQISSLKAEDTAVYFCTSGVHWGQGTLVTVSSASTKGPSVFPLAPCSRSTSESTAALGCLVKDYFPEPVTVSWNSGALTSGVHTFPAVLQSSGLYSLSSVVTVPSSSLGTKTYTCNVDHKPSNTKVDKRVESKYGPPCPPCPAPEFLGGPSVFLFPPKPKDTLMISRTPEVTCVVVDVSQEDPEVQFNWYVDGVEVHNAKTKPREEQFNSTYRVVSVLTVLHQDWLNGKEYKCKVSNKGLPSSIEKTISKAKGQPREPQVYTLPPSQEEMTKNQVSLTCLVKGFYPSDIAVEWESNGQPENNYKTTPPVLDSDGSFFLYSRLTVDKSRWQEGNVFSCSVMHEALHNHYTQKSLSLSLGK
light: DIQMTQSPSTLSASVGDRVTITCSASSSVSSMHWYQQKPGKAPKLLIYSTSNLASGVPSRFSGSGSGTEYTLTISSLQPDDFATYYCHHWTSYMYTFGGGTKVEIKRTVAAPSVFIFPPSDEQLKSGTASVVCLLNNFYPREAKVQWKVDNALQSGNSQESVTEQDSKDSTYSLSSTLTLSKADYEKHKVYACEVTHQGLSSPVTKSFNRGECGGGGSGGGGSQVQLQESGPGLVKPSETLSLTCTVSGSSLTSYGVHWVRQPPGKCLEGLGVIWPGGSTNYNSALMSRVTISKDNSKSQVSLKMSSLTAADTAVYYCARVTGTWYFDVWGQGTTVTVSSGGGGSGGGGSGGGGSDIQMTQSPSSLSASLGDRVTISCSASQGISNYLNWYQQKPDGTVKLLIYYTSTLHSGVPSRFSGSGSGTDYTLTISSLQPEDIATYYCQQYSKLPWTFGCGTKLEIK

ADCP: phagocytosis of CD24-SKOV3 cells by macrophages, EC50: 13 pM
ADCP: phagocytosis of MCF-7 cells by macrophages, EC50: 4 pM
B2: 1-C2-IgG1 (bispecific antibody)
heavy: not shown
light: DIQMTQSPSTLSASVGDRVTITCSASSSVSSMHWYQQKPGKAPKLLIYSTSNLASGVPSRFSGSGSGTEYTLTISSLQPDDFATYYCHHWTSYMYTFGGGTKVEIKRTVAAPSVFIFPPSDEQLKSGTASVVCLLNNFYPREAKVQWKVDNALQSGNSQESVTEQDSKDSTYSLSSTLTLSKADYEKHKVYACEVTHQGLSSPVTKSFNRGEC

Source: US20250320309A1 (SHENGHE CHINA BIOPHARMACEUTICAL, published 2025)
